Test results from PMC8169993.

Legend:
[1] = molecular target: T1, RPA (heterotrimer RPA1/RPA2/RPA3) (Homo sapiens, UniProt P27694;P15927;P35244 1-616;1-270;1-121); assay: fluorescence polarization
[2] = molecular target: T1, RPA (heterotrimer RPA1/RPA2/RPA3); assay: smFRET
[3] = molecular target: T1, RPA (heterotrimer RPA1/RPA2/RPA3); assay: smFRET; remark: listed apart in the source
[4] = molecular target: T1, RPA (heterotrimer RPA1/RPA2/RPA3); assay: smFRET; remark: listed apart in the source
[5] = molecular target: T1, RPA (heterotrimer RPA1/RPA2/RPA3); assay: gel filtration

T1 sequence (P27694 whole entry, chain 1 of 3): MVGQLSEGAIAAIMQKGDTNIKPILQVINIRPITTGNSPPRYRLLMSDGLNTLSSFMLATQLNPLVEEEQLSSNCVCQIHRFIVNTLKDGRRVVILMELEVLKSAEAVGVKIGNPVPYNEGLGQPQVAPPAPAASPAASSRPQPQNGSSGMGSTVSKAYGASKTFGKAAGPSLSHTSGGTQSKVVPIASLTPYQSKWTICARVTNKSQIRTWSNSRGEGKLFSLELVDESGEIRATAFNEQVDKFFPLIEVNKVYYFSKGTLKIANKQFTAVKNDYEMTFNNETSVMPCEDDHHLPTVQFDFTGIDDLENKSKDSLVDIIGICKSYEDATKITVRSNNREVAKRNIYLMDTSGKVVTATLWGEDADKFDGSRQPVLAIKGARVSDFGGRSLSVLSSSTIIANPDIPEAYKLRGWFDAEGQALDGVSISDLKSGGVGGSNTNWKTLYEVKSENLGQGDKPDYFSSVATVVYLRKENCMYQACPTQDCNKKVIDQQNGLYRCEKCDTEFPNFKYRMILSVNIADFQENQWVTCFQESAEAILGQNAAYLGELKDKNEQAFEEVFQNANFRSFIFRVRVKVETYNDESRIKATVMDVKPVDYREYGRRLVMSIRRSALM
T1 sequence (P15927 whole entry, chain 2 of 3): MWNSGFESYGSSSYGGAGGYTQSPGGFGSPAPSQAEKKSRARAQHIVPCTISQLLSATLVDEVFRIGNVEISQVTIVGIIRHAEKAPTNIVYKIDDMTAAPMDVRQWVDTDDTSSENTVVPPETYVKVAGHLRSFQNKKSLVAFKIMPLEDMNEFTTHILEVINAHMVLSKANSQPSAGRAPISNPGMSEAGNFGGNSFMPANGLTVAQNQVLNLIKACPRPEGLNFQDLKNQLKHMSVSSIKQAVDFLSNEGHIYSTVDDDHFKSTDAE
T1 sequence (P35244 whole entry, chain 3 of 3): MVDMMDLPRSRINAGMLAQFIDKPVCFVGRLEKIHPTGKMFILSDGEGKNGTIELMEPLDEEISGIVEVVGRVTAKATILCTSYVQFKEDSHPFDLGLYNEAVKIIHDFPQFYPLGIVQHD

B1: 3G4L3 (FP substrate) (mixed)
DNA 1: GCGTGGCACCGGTAATAGGAAATAGGAGATTGGGTTAGGGTTAGGGTTAGGGTT
DNA 2: TCCTATTTCCTATTACCGGTGCCACGC
Q: For B1, which Kd [1] is on record?
A: 6.3 nM

B2: 3G4L121* (mixed)
DNA 1: GGGTGGGTAGGGTGGGATGTATGACAAGGAAGG
DNA 2: CCTTCCTTGTCATAC
Q: Does B2 bind [2]?
A: binds

B3: 3G4L1 (FP substrate) (mixed)
DNA 1: GCGTGGCACCGGTAATAGGAAATAGGAGATTGGGTGGGTGGGTGGGTT
DNA 2: TCCTATTTCCTATTACCGGTGCCACGC
Q: For B3, which Kd [1] is on record?
A: 8.6 nM

B4: 27bp4nt (mixed)
DNA 1: GCGTGGCACCGGTAATAGGAAATAGGAGATT
DNA 2: TCCTATTTCCTATTACCGGTGCCACGC
Q: Does B4 bind [3]?
A: binds

B5: 3G4L4 (mixed)
DNA 1: GCGTGGCACCGGTAATAGGAAATAGGAGATTGGGTTTTGGGTTTTGGGTTTTGGGTT
DNA 2: TCCTATTTCCTATTACCGGTGCCACGC
Q: Does B5 bind [4]?
A: binds

B6: 3G4L5 (mixed)
DNA 1: GCGTGGCACCGGTAATAGGAAATAGGAGATTGGGTTTTTGGGTTTTTGGGTTTTTGGGTT
DNA 2: TCCTATTTCCTATTACCGGTGCCACGC
Q: Does B6 bind [4]?
A: binds

B7: 4G4 (mixed)
DNA 1: GCGTGGCACCGGTAATAGGAAATAGGAGATTGGGGTGTGGGGACAGGGGTGTGGGGTT
DNA 2: TCCTATTTCCTATTACCGGTGCCACGC
Q: Does B7 bind [5]?
A: binds
